For experiment [1], the target named is T1, human angiopoietin-2 protein (human, UniProt O15123 19-496).
T1 construct: also called Ang-2; Ang2
T1 sequence (looked up): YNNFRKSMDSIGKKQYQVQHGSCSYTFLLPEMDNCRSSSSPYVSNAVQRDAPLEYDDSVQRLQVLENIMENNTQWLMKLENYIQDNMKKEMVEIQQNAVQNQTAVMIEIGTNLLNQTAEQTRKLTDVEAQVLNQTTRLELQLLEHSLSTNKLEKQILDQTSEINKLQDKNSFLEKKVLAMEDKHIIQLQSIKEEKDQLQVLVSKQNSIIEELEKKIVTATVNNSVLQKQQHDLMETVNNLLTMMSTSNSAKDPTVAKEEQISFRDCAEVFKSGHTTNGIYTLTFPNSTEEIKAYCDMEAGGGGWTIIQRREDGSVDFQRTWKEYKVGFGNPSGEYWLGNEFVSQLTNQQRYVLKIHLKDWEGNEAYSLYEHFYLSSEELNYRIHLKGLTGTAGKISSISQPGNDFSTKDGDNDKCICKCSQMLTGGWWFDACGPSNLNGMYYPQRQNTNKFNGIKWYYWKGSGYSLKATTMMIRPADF
The experiment can be described thus: competitive ELISA: Tie-2-Fc binding to coated Ang-2; T. The protocol: (§1) Plates were washed three times with washing buffer (0.1% Tween 20, PBS, pH 7.4) and blocked with Superblock (Scytek), […] at room temperature (“RT”) for 1 hour. […] Plates were washed 3 times with washing buffer. […] Following incubation, 50 ul of 1:5,000 dilution of goat anti-mouse IgG-HRP in Superblock was then added and incubated at RT for one hour. After washing 3 times, […] was added, and incubated for 3-5 minutes. Color development was monitored and stopped with 25 μl of 2 M H₂SO₄. OD450 nm with a correction wavelength of 540 nm was measured.
In general terms: An ELISA detects its analyte on a solid surface through an enzyme-linked reagent.

The target in experiment [2] is T2, recombinant human VEGF165 (human, UniProt P15692-4 27-191).
T2 construct: also called rhVEGF165
T2 sequence (P15692 other isoform, or with tags, fused parts or gaps limits assumed): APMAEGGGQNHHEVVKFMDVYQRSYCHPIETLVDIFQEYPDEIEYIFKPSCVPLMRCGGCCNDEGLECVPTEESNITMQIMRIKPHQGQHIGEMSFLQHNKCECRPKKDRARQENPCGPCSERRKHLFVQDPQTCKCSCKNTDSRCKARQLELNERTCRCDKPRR
Kind of experiment: competition ELISA: VEGF165 binding to coated VEGFR2/Fc; normalized value.

Experiment [3] deals with T2, recombinant human VEGF165. Described as above. The source holds these as a separate data set.
The target of experiment [4] is T1, human angiopoietin-2 protein. Kind of experiment: competitive ELISA: Tie-2-Fc binding to coated Ang-2; peptide alone. The protocol: as §1
For experiment [5] the target is unchanged. The experiment can be described thus: reverse competition ELISA presumed: Ang-2 binding to coated Tie-2-Fc; peptide alone. The protocol:
Plates were washed three times with washing buffer (0.1% Tween 20, PBS, pH 7.4) and blocked with Superblock, 150 μl/well at RT for 1 hour. Plates were washed three times. […] Plates were washed 3 times, and 50 W of streptavidin HRP (1:200 dilution in Superblock) was added at RT for 20 minutes. Plates were washed 3 times, and […] (25 μl TMB+25 μl H₂O₂) substrate solution was added and incubated for 20-30 minutes. Color development was stopped with 25 μl of 2 M H₂SO₄. OD450 nm with a correction wavelength of 540 nm was measured.

Like-named read-outs stand apart in the source and are kept apart here. Bridges are numbered along the chain shown (N, C = ends). Where no end group is shown, it is not given here. [ ]: non-standard residue; d: D form. Phe(4-NO2) = N[C@@H](Cc1ccc([N+](=O)[O-])cc1)C(=O)O; Phe(4-COOH) = N[C@@H](Cc1ccc(C(=O)O)cc1)C(=O)O; Bpa = N[C@@H](Cc1ccc(C(=O)c2ccccc2)cc1)C(=O)O; Hyp = O=C(O)[C@@H]1C[C@@H](O)CN1; 0P linker = not defined here; 4P linker = not defined here; ThA = not defined here

What is called IC50 is the point on the concentration scale where inhibition reaches its midpoint. Molecule XQXYQPLDELDKTLYDQFMLQQG (DFB at N-terminus; C-terminal amino cap; Kac 2; 0P linker on K11) [Compound 4050, peptide plus linker (T)] registered an IC50 in experiment [1] of 33 nM. Molecule QXYQPLDELDKTLYDQFMLQQG (N-terminal acyl cap; C-terminal amino cap; Kac 2; 0P linker on K11, also called 4029 T) [Compound 4029, peptide plus linker (T)] had an IC50 in experiment [1] of 83.3 nM.

B1: Compound 4055, peptide plus linker (T) (peptide)
peptide: QXYQPLDELDXTLYDQFMLQQG
modifications: not fully specified; N-terminal acyl cap; C-terminal amino cap; Kac 2; 0P linker on Dap 11
notes: also called 4055 T
In turn, B1 gave an IC50 in experiment [1] of 598 nM.

B2: Compound 4061, peptide plus linker (T) (peptide)
peptide: QXYQPLDELDKTLYDQFMLQQG
modifications: not fully specified; N-terminal acyl cap; C-terminal amino cap; Nick 2; 0P linker on K11
notes: also called 4061 T
For B2, in experiment [1], the IC50 is 83.9 nM. As for XQXYQPLDELDKTLYDQFMLQQG (DCB at N-terminus; C-terminal amino cap; Kac 2; 0P linker on K11, also called 4049 T) [Compound 4049, peptide plus linker (T)], the IC50 in experiment [1] was determined as 28.4 nM. As for QXYQXLDELDKTLYDQFMLQQG (N-terminal acyl cap; C-terminal amino cap; Kac 2; HP 5; 0P linker on K11, also called 4035 T) [Compound 4035, peptide plus linker (T)], the IC50 in experiment [1] stood at 121 nM.

B3: Compound 4048, peptide plus linker (T) (peptide)
peptide: QK(Ac)YQPLDEK(Ac)DK(0P linker)TL[Phe(4-NO2)]DQFMLQQG-NH2
modifications: reading uncertain; also: N-terminal acyl cap, acyl not given here, printed as Q(Kac)Y QPL DE(Kac) DK(0P)T L(NO2)FD QFM LQQ G
notes: also called 4048 T
In turn, B3 yielded an IC50 in experiment [1] of 82.4 nM. On to XQXYQPLDELDKTLYDQFMLQQG (PyC at N-terminus; C-terminal amino cap; Kac 2; 0P linker on K11, also called 4051 T) [Compound 4051, peptide plus linker (T)], for which the IC50 in experiment [1] is 14.3 nM.

QXYQPLDELDKTLYDQFMLQQG (N-terminal acyl cap; C-terminal amino cap; Kac 2; 4P linker on K11, also called 4024 T) [Compound 4024, peptide plus linker (T)]: the IC50 in experiment [1] was 207 nM. Same read-out and setting: with QXYQPLDELDKTXYDQFMLQQG (N-terminal acyl cap; C-terminal amino cap; Kac 2; 0P linker on K11; HF 13, also called 4039 T) [Compound 4039, peptide plus linker (T)] the figure was 4890 nM. For Ac-VEPNCDIHVMWEWECFERL-NH2 (disulfide 5-15 (inferred)) [[VEGF-Peptide] SEQ ID NO:34], the IC50 in experiment [2] and in experiment [3] was 188 nM throughout.

B4: Compound 4057, peptide plus linker (T) (peptide)
peptide: QNYQPLDELDKTL[Phe(4-COOH)]DQFMLQQG-NH2
modifications: not fully specified (residue 11, N-terminus); also: N-terminal acyl cap, acyl not given here
notes: also called 4057 T
Consider B4, for which the IC50 in experiment [1] stood at 110 nM.

B5: Compound 4056, peptide plus linker (T) (peptide)
peptide: QNYQPLDELDKTL[Bpa]DQFMLQQG-NH2
modifications: not fully specified (residue 11, N-terminus); also: N-terminal acyl cap, acyl not given here
notes: also called 4056 T
Regarding B5, the IC50 in experiment [1] came out at 92.2 nM. Turning to QXYQPLDELDKTXYDQFMLQQG (N-terminal acyl cap; C-terminal amino cap; Kac 2; 0P linker on K11; Nva 13, also called 4041 T) [Compound 4041, peptide plus linker (T)], the IC50 in experiment [1] was found to be 1340 nM.

B6: Compound 4046, peptide plus linker (T) (peptide)
peptide: QK(Ac)YQ[Hyp]LDE[ThA]DK(0P linker)TL[Bpa]DQFMLQQG-NH2
modifications: not fully specified; reading uncertain; also: N-terminal acyl cap, acyl not given here
B6 showed an IC50 in experiment [1] of 82.7 nM. In experiment [1], QXYQPLDELDXTLYDQFMLQQG (N-terminal acyl cap; C-terminal amino cap; Kac 2; 0P linker on Dab 11, also called 4054 T) [Compound 4054, peptide plus linker (T)] returned an IC50 of 292 nM.

In turn, QXYQPLDEKDXTLYDQFMLQQG (N-terminal acyl cap; C-terminal amino cap; Kac 2; 0P linker on K9; Kac 11, also called 4030 T) [Compound 4030, peptide plus linker (T)] displayed an IC50 in experiment [1] of 279 nM. In experiment [4], QNYQPLDELDKTLYDQFMLQQG-NH2 (also: N-terminal acyl cap) [Compound 4023] gave an IC50 of 27.8 nM. Regarding QKYQPLDELDKTLYDQFMLQQG-NH2 (also: N-terminal acyl cap) [Compound 4021], the IC50 in experiment [5] came to 36.4 nM; in experiment [4] it was 25.8 nM. XQXYQPLDELDKTLYDQFMLQQG (Amido 2-PEG at N-terminus; C-terminal amino cap; Kac 2; 0P linker on K11, also called 4052 T) [Compound 4052, peptide plus linker (T)]: in experiment [1], the IC50 came to 134 nM.

B7: Compound 4025, peptide plus linker (T) (peptide)
peptide: QNYQPLDELDK(4P linker)TLYDQFMLQQG-NH2
modifications: reading uncertain; also: N-terminal acyl cap, printed as QNY QPL DEL DK(4P)T LYD QFM LQQ G
notes: also called 4025 T
As for B7, in experiment [1], the IC50 turned out to be 300 nM.

B8: Compound 4034, peptide plus linker (T) (peptide)
peptide: QXYQXLDELDKTLYDQFMLQQG
modifications: not fully specified; N-terminal acyl cap; C-terminal amino cap; Kac 2; D(HP) 5; 0P linker on K11
notes: also called 4034 T
With B8, in experiment [1], the IC50 was found to be 224 nM. In turn, QXYQPLDELDKTXYDQFMLQQG (N-terminal acyl cap; C-terminal amino cap; Kac 2; 0P linker on K11; HL 13, also called 4042 T) [Compound 4042, peptide plus linker (T)] returned an IC50 in experiment [1] of 1340 nM. The same measure, in the same setting: with QK(Ac)YQPLDEK(Ac)DKTL[Phe(4-COOH)]DQFMLQQG-NH2 (not fully specified (residue 11, N-terminus), also called 4062 T) [Compound 4062, peptide plus linker (T)] the figure was 499 nM.

B9: Compound 4045, peptide plus linker (T) (peptide)
peptide: QK(Ac)YQ[Hyp]LDE[ThA]DK(0P linker)TL[Phe(4-NO2)]DQFMLQQG-NH2
modifications: not fully specified; reading uncertain; also: N-terminal acyl cap, acyl not given here
notes: also called 4045 T
B9 displayed an IC50 in experiment [1] of 24.7 nM.

B10: Compound 4047, peptide plus linker (T) (peptide)
peptide: QK(Ac)YQ[Hyp]LDE[ThA]DK(0P linker)TL[Phe(4-COOH)]DQFMLQQG-NH2
modifications: not fully specified; reading uncertain; also: N-terminal acyl cap, acyl not given here
notes: also called 4047 T
Molecule B10 gave an IC50 in experiment [1] of 43.3 nM. In the case of QXYQPLDELDKTLYDQFMLQQG (N-terminal acyl cap; C-terminal amino cap; Kac 2) [Compound 4022], the IC50 in experiment [5] came to 14.4 nM; in experiment [4] it was 41.9 nM. Take QXYQPLDELDKTIYDQFMLQQG (N-terminal acyl cap; C-terminal amino cap; Kac 2; 0P linker on K11, also called 4036 T) [Compound 4036, peptide plus linker (T)]: in experiment [1], the IC50 worked out at 2410 nM.

In turn, QXYQPLDELDKTLFDQFMLQQG (N-terminal acyl cap; C-terminal amino cap; Kac 2; 0P linker on K11, also called 4044 T) [Compound 4044, peptide plus linker (T)] displayed an IC50 in experiment [1] of 36.9 nM. For the molecule QXYQPLDEIDKTLYDQFMLQQG (N-terminal acyl cap; C-terminal amino cap; Kac 2; 0P linker on K11, also called 4037 T) [Compound 4037, peptide plus linker (T)], in experiment [1], the IC50 was determined as 1270 nM. Consider Ac-VEPNCDIHVMWVWECFERLYGGW-NH2 (disulfide 5-15 (inferred)) [[VEGF-Peptide] SEQ ID NO:35], for which the IC50 in experiment [2] worked out at 325 nM. Consider Ac-VEPNCDIHVMWVWVCFERLFKEA-NH2 (disulfide 5-15 (inferred)) [[VEGF-Peptide] SEQ ID NO:37], for which the IC50 in experiment [2] was 59 nM. Same read-out and setting: with Ac-VEPNCDIHVMWVWECFERLYREL-NH2 (disulfide 5-15 (inferred)) [[VEGF-Peptide] SEQ ID NO:39] the figure was 70 nM; with Ac-VEPNCDIHVMWVWVCFERLFREA-NH2 (disulfide 5-15 (inferred)) [[VEGF-Peptide] SEQ ID NO:36], 172 nM.

The values are drawn from US20120321591A1 (COVX TECHNOLOGIES IRELAND, published 2012).
